Assay results reported in paper PMC2194227.

Columns and labels:
[1] = molecular target: mutant mCD1d cytoplasmic tail peptide (…), tyrosine substituted for alanine (mouse); test: SPR
[2] = molecular target: WT mCD1d cytoplasmic tail peptide (…) (mouse); test: SPR

Kd [1]: 2630 nM | Kd [2]: 540 nM
Substance: adaptor protein complex 3 (AP-3) purified from pig brain cytosol
